# Results reported in patent publication US11285197B2, “Mesothelin vaccines and model systems” (priority 2002, dated 2022).
# Molecular target: T1, HLA-A2 (Homo sapiens, UniProt P04439, D140Y/D185E/D98H/E176V/E277Q/G131W/G231S/I119V/I121R/I166T/I218V/L300P/L318F/N151K/N90K/P208A/P217A/Q86G/Q94H/R138H/R169H/T345S)
# T1 construct: pulsing TAP deficient T2 cells that expressed the corresponding HLA class I molecule (T2-A2, T2-A3, or T2-A24 cells); endogenous in cells; host or cells: human T2 cells (TAP-deficient B/T lymphoblast hybrid), called T2-A2
# Assay: T2 peptide/MHC binding assay, T2-A2 cells, W6/32 staining, flow cytometry
# Conditions: T2-A2 cells pulsed with peptide, HLA class I antibody W6/32, flow cytometry
sequence,measurement,value
EIDESLIFY (listed as Homo sapiens),detection of HLA-A2 on the cell surface of peptide-pulsed T2-A2 cells,do not stain
